What was measured:
[1] = biological target: PaFtsH1-6xHis (FtsH1 of Pseudomonas aeruginosa SG17M clone C) (Pseudomonas aeruginosa SG17M); test: SEC; analytical Superdex 200 (increase) 3.2/3.0 gel filtration column in Buffer PD (50 mM Tris-HCl pH 8.0, 80 mM NaCl, 10% glycerol, 2 mM beta-mercaptoethanol, 0.1% NP-40); native mass from molecular weight standards; hexamer plus NP-40 micelles
[2] = biological target: PaFtsH1-6xHis (FtsH1 of Pseudomonas aeruginosa SG17M clone C) (Pseudomonas aeruginosa SG17M); test: negative-stain electron microscopy; detergent-solubilised enzyme at 0.4 mg/ml in storage buffer with 0.1% Igepal, 2% uranyl acetate; 3D reconstruction with C6 symmetry, about 22 A
[3] = biological target: PaFtsH2-6xHis (FtsH2 of Pseudomonas aeruginosa SG17M clone C, tLST genomic island) (Pseudomonas aeruginosa SG17M); test: SEC; analytical Superdex 200 (increase) 3.2/3.0 gel filtration column in Buffer PD (50 mM Tris-HCl pH 8.0, 80 mM NaCl, 10% glycerol, 2 mM beta-mercaptoethanol, 0.1% NP-40); native mass from molecular weight standards; hexamer plus NP-40 micelles
[4] = biological target: PaFtsH2-6xHis (FtsH2 of Pseudomonas aeruginosa SG17M clone C, tLST genomic island) (Pseudomonas aeruginosa SG17M); test: negative-stain electron microscopy; detergent-solubilised enzyme at 0.4 mg/ml in storage buffer with 0.1% Igepal, 2% uranyl acetate; 3D reconstruction with C6 symmetry, about 22 A

| Substance | stoichiometry N [1] | stoichiometry N [2] | stoichiometry N [3] | stoichiometry N [4] |
| --- | --- | --- | --- | --- |
| PaFtsH1-6xHis (FtsH1 of Pseudomonas aeruginosa SG17M clone C) (enzyme) | 6 | 6 | – | – |
| PaFtsH2-6xHis (FtsH2 of Pseudomonas aeruginosa SG17M clone C, tLST genomic island) (enzyme) | – | – | 6 | 6 |
